Measurements taken from patent publication US20110286916A1 (published 2011).
Substitutions are numbered along the chain they refer to.

B1: N1wc21 (scFv, V domains shown)
VH: QVQLVESGAEVKKPGASVKVSCKASGYTFTDHYIQWLRQAPGQGLEWMGWMNPKSGGTNYAQKFQGRVTLTRDTSISTAYMDLSGLRFDDTAIYFCASDPTIPPSPNYDYYYYAMDLWGKGTLVTVSS
VL: SYELTQPPSVSVSPGQTARITCSGDALPDKYVHWYQQKSGQAPVLVLFDDSKRPSGIPERFSGSSSGTVATLIISGAQVEDEGDFFCYSTDSSGNERVFGGGTKLTVL
notes: phage scFv
B2: N1wc24 (scFv, V domains shown)
VH: EVQLVESGPGLVKPSETLSLTCTVSGGSMTSNFWSWIRQTPGKGLEWIGYVLYTGSTNSNPSLKSRVTMSVDTSKNQVSLTLSSVTAADTAIYYCARGNGWYLPWGRGTMVTVSS
VL: QSVLTQPPSVSGAPRQRVTISCSGSSSNIENNIVNWYQQLPGEAPKLLIYYDNLLPSGVSDRFSGSKSGTSASLAISGLQSGDEADYYCAAWDDSLKAVVFGGGTKLTVL
notes: phage scFv
B3: N1wc82 (scFv, V domains shown)
VH: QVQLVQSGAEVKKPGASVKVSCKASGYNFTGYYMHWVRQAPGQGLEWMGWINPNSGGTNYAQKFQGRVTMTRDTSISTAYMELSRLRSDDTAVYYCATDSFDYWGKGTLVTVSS
VL: QSVLTQPPSVSATPGQKVTISCSGSNSNIGNNYVSWYQQLPGTAPKLLIYDSDQRPAGIPDRFSGSKLGTSATLGITGLQTGDEADYYCATWDAGLSVLIFGGGTKLTVL
notes: phage scFv
B4: N1wc113 (scFv, V domains shown)
VH: QMQLVQSGAEVKRPGASVNLSCKASGYSFSRYYIHWVRQAPGQGLELMGRINPGGGTTTYAQKFQGRVTLSRDTSTNTIFMELNGLTSEDTAMYYCARSNYDILAGYGPDAFDFWGQGTMVTVSS
VL: QAVLTQPSSVSGAPGQRVTISCTGSSSNIGAGNDVHWYRQFPGTAPKLLIYGNNKRPSGVSDRFSGSKSGTSASLAITGLQVEDEADYYCQSYDSSLGGSDVFGGGTKLTVL
notes: phage scFv
B5: N1wc125 (scFv, V domains shown)
VH: QVQLQQSGAEVKKPGAPLKVSCKTSGFTFTGYYIHWVRQAPGQGLEWMGRVDPYNGATNFAQKFQGRVTMTTDTSTSTTYMELMSLRSDDTAVYYCARGWELDSWGQGTLVTVSS
VL: QSVLTQPASVSGSPGQSITISCTGTSSDVGGYNYVSWYQQHPGKAPKLMIYEGSKRPSGVSNRFSGSKSGNTASLTISGLQAEDEADYYCSSYTTRSTRVFGGGTKLTVL
notes: phage scFv
B6: N1wc127 (scFv, V domains shown)
VH: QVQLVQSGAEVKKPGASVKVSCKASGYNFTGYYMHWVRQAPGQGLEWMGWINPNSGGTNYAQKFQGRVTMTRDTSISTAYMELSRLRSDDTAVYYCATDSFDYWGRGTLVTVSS
VL: SYVLTQPPSTSGAPGQRVTISCSGSSSNIGSNGVNWYHHLPGTAPKLLIYSNFHRPSGVPDRFSGSKSGTSATLAISGLQSEDEADYYCAAWDDSLNDYVFGVGTKVTVL
notes: phage scFv
B7: N1wc129 (scFv, V domains shown)
VH: QVQLVQSGAEVKKPGASVKVSCKASGYNFTGYYLHWVRQAPGQGLEWMGWIDPNSGGTDYAQQFQGRVTVTRDTSISTAYMELSGLRSDDTAVYYCASDSFDHWGQGTLVTVSS
VL: QSVLTQPPSASGTPGQRATISCSGSGSNIGRNAVNWFQQLPGAAPKLLIYSNIHRPSGVPDRISGSKSGTSATLAISGLQSEDEADYYCATWDDSLNDYVFGTGTKLTVL
notes: phage scFv
B8: N1wc132 (scFv, V domains shown)
VH: B7 VH with D52N, Q63K, S84G, A97V, Q106R
VL: QSVLTQPPSASGTPGQRVTISCSGSSSNIGSNPVNWYQQLPGSAPKLLVYSDDQRPSGVPDRFSGSKSGASASLAISGLQSEDESDYYCAAWDDSQNAVVFGGGTKVTVL
notes: phage scFv
B9: N1wc150 (scFv, V domains shown)
VH: EVQLVQSGAEVKKPGASVKVSCKASGYNFTGYYMHWVRQAPGQGLEWMGWINPNSGGTNYAQKFQGRVTMTRDTSISTAYMELSRLRSDDTAVYYCATDSFDYWGRGTMVTVSS
VL: SYELTQPPSASGTPGQRVTISCSGSGSNIGKNTVNWYQQLPGAAPKLLIYSNNERPSGVPGRFSGSKSGTSASLAISGLQSEDETDYYCAAWDDSLNDMVFGGGTKVTVL
notes: phage scFv
B10: N1wc164 (scFv, V domains shown)
VH: QVQLVQSGADVKKPGASVKISCKASGYTFTKYYMHWVRQAPGQGLEWMGIINPTNGYTSYAQKFQGRVTMTSDTSASTVSMELSSLRSEDTAVYYCTRSYSNYDSFDIWGRGTMVTVSS
VL: QAVLTQPSSVSGAPGQRITISCTGTSSNIGAGYDVEWYQHLPGTAPKLLIYRNSNRPSGVPDRFSASKSGTSASLVITGLQAEDEADYYCQSYDTRLSDSVIFGGGTKLTVL
notes: phage scFv
B11: N1wc170 (scFv, V domains shown)
VH: QVQLQQSGPEVKKPGASVKISCKTSGYTFSSFGISWVRQAPGQGPEWMGWVSPYSGDTDYAQKFRGRVTMTIDSSTDTAYVEMRSLRSDDTAIYYCANSPISDGSSSSYDNWGKGTLVTVSS
VL: SYELTQPPSVSVAPGQTARITCGGENIGTKSVHWYQQKSGQAPVLVIYEDKKRPSGIPDRFSGSSSGTMATLTITGAQVDDEADYYCYSADNTGDQRMFGGGTKLTVL
notes: phage scFv
B12: N1wc177 (scFv, V domains shown)
VH: QVQLVQSGAEVKEPGSSVRVSCKSSGGTFSNYAISWVRQAPGQGLEWMGGIIPGFGKTNYAQKFQGRVTITADASTSTTYMELRTLRSGDTAVYYCARDRGPDIGVAHFDSWGKGTMVTVSS
VL: QAVLTQPSSASGTPGQRVIISCSGSSSNIGKYIVNWYQQLPGAAPKLLIYTYNERPSGVPARFSGSTSGTSASLAITGLQSEDEADYYCASWDDSLNVVVFGGGTKLTVL
notes: phage scFv
B13: N1wc182 (scFv, V domains shown)
VH: QVQLVQSGPEVKKPGTSVKVSCKASGFTFTSSAVQWVRQARGQRLEWIGWIVVGSGNTNYAQKFQERVTITRDMSTSTAYMELSSLRSEDTAVYYCVADTVYWGQGTLVTVSS
VL: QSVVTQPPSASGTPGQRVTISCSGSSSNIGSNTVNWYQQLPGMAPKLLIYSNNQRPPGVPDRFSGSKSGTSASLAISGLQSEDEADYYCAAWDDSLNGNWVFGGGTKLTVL
notes: phage scFv
B14: N1wc239 (scFv, V domains shown)
VH: B9 VH with Q6E, M34I, T69I, R106K
VL: QSVLTQPPSASGTPGQRVAISCSGSHSNIRSNDVYWYQQFPGTAPKLLIYSNDQRPSGVSDRFAGSKSGTSASLAISGLRSEDESDYYCATWDDSLSGVVFGGGTKLTVL
notes: phage scFv
B15: N1wc241 (scFv, V domains shown)
VH: EVQLVQSGAEVKKPGASVKVSCKTSGYTFNDYYHHWVRQAPGQGLEWMGWINPHTGVANYAEKYKGRLAMTGDTSISTIYMDLSSLISDDTAIYFCARERSEWRNTVSSPSEYFHHWGKGTLVTVSS
VL: QSVLTQPPSASGTPGQRVTISCSGSFSNIGSNNVYWYQQLAGTAPKLLIYRNNERPSGVPDRFSGSKSGTSASLAISGLRSEDEADYYCAVRDDSLSGHYVFGSGTKVTVL
notes: phage scFv
B16: N1wc281 (scFv, V domains shown)
VH: QVQLQESGAEVKKPGASVKVSCRASGYTFTTNSLHWVRQAPGQGLDWMGVINPRDGSATVAQKFQGRITMTSDTSTSTVFLALSSLTSDDTGVYFCARDGLDYRDTSRILAPTDVWGRGTLVTVSS
VL: QSVLTQPPSVSVSPGQTASITCSGDKLGDKYTFWYQQKPGQSPVLIIYQDTKRPSGIPERFSGSNSGNTATLTISGTQAMDEADYYCQAWDSNTDHVIFGGGTKLTVL
notes: phage scFv
B17: N1wc289 (scFv, V domains shown)
VH: QVQLVQSGAEVKKPGTTVKISCKVSGYKFTDYYIHWVRQAPGKGLEWMGFVDPTDDETRFAEKFQGRLTMTADTSRDTASMELSSLRSEDTAVYYCIRGIAALADWGRGTMVTVSS
VL: QAVLTQPSSLSASPGASASLTCTLRSDINLETSRIYWFQQKPGSPPRYLLRYQSDSDNNLDSGVPSRFSGSKDASANAGILLISGVQSEDEADYHCMIWHSGGSVFGGGTKVTVL
notes: phage scFv
B18: N1wc295 (scFv, V domains shown)
VH: B9 VH with E1Q, V5Q, K63N
VL: QSVLTQPPSASGTPGQRVTISCSGNRSNIGSNTVNWYQQLPGTAPKLLIYSNDQRPSGVPDRFSGSKSGTSASLTISGLQSDDEADFYCAAWDDNLNGYVFGSGTKVTVL
notes: phage scFv
B19: N1wc301 (scFv, V domains shown)
VH: QVQLQQSGAEVKKPGASVKVSCKASGYIFGTYAIHWVRQAPGQSLEWMGWINAGTGNTKYSQKFQGRVTITMDTSATTAYMELSSLRSGDTAVYYCTRGDYYDSRGYYNRFDYWGRGTLVTVSS
VL: QSVVTQPPSASGTPGQRVTISCSGSSSNIGKNNVYWYQQLPGAAPKLLIYRNHERASGVPDRFSGSKSGTSASLAISGLQSEDEADYYCAARDDSLNGYVFGTGTKVTVL
notes: phage scFv
B20: N1wc319 (scFv, V domains shown)
VH: B9 VH with E1Q, K12E, M109L
VL: QSVLTQPPSSSGTPGQRVTISCSGSSSNIGSNSVNWYQQLPGAAPKLLIYSDNQRPSGVPDRFSASKSYTSASLAISGLQSGDEADYFCATWDDSLTGLVFGGGTKLTVL
notes: phage scFv
B21: N1wc441 (scFv, V domains shown)
VH: QVQLVQSGAEVKKPGASVKVSCKAPGYSFTDYYLHWVRQAPGIGLEWVGWINPNNGGTNYAQKFRGRVTMTRDTAINTAYMDMRWLRSDDTAVYYCATDGPPGTGNAFDIWGRGTLVTVSS
VL: B1 VL
notes: phage scFv

What follows are binders tested against T1, human full-length Notch1 with C-terminal FLAG tag, stably expressed on 293 FlpIn (TREx) cells (human, UniProt P46531 19-2555) (assay: FACS, phage scFv).
T1 construct: tetracycline/doxycycline-induced expression from pcDNA5/FRT/TO-HN1+FLAG; also called hN1; 293_N1
B1: binds. B2: binds. B3: binds. B4: binds. B5: binds. B6: binds. B7: binds. B8: binds. B9: binds. B10: binds. B11: binds. B12: binds. B13: binds. B14: binds. B15: binds. B16: binds. B17: binds. B18: binds. B19: binds. B20: binds. B21: binds.

What follows are binders tested against T2, human full-length Notch3 with C-terminal FLAG tag, stably expressed on 293 FlpIn (TREx) cells (human, UniProt Q9UM47 40-2321) (assay: FACS, phage scFv).
T2 construct: whole, on cells; made by the same strategy as the Notch1 line; also called 293-N3; hN3
B1: binds. B2: binds. B3: binds. B4: binds. B5: binds. B6: binds. B7: binds. B8: binds. B9: binds. B10: binds. B11: binds. B12: binds. B13: binds. B14: binds. B15: binds. B16: binds. B17: binds. B18: binds. B19: binds. B20: binds. B21: binds.
